# Measurements taken from patent US20070009529A1, “Agents that dissolve arterial thrombi” (New York University, priority 2002, published 2007).
# Assays:
# [1] = system: platelets; test: Platelet oxidation/fragmentation induced independently of anti-GPIIIa49-66 (DCHF-loaded platelets); type: cell-based
# [2] = system: platelets; test: Platelet 12(S)-HETE generation; type: cell-based
# Excerpt: Recombinant ADAMTS-18 was then made with the expression vector pBudCE4.1 in 293T cells. This peptide induced platelet 12(S)—HETE and oxidation/fragmentation in an identical kinetic fashion as anti-GPIIIa49-66 antibody. Both expressed rADAMTS-18, and HUVEC conditioned media ADAMTS-18 could be activated by thrombin (0.5μ/mL and then neutralized with hirudin), with optimum effect at one hour (n=4). HUVEC ADAMTS-18 induced oxidation fragmentation could be inhibited about 50% by an scFV antibody raised against the ADAMTS-18 (18-mer) peptide as well as GPIIIa49-66 peptide, as well as RGDS (GPIIIa ligand binding site) (n=7).
molecule,measurement,setting,value
"Recombinant ADAMTS-18: recombinant disintegrin and metalloprotease with thrombospondin-like motifs, expressed with pBudCE4.1 in 293T cells (protein, UniProt Q8TE60 285-1221, looked up, recombinant, 293T-expressed, recombinant disintegrin and metalloprotease with thrombospondin-like motifs, expressed with pBudCE4.1 in 293T cells) A disintegrin and …: SAGKSQKGLNVETLVVADKKMVEKHGKGNVTTYILTVMNMVSGLFKDGTIGSDINVVVVSLILLEQEPGGLLINHHADQSLNSFCQWQSALIGKNGKRHDHAILLTGFDICSWKNEPCDTLGFAPISGMCSKYRSCTINEDTGLGLAFTIAHESGHNFGMIHDGEGNPCRKAEGNIMSPTLTGNNGVFSWSSCSRQYLKKFLSTPQAGCLVDEPKQAGQYKYPDKLPGQIYDADTQCKWQFGAKAKLCSLGFVKDICKSLWCHRVGHRCETKFMPAAEGTVCGLSMWCRQGQCVKFGELGPRPIHGQWSAWSKWSECSRTCGGGVKFQERHCNNPKPQYGGLFCPGSSRIYQLCNINPCNENSLDFRAQQCAEYNSKPFRGWFYQWKPYTKVEEEDRCKLYCKAENFEFFFAMSGKVKDGTPCSPNKNDVCIDGVCELVGCDHELGSKAVSDACGVCKGDNSTCKFYKGLYLNQHKANEYYPVVLIPAGARSIEIQELQVSSSYLAVRSLSQKYYLTGGWSIDWPGEFPFAGTTFEYQRSFNRPERLYAPGPTNETLVFEILMQGKNPGIAWKYALPKVMNGTPPATKRPAYTWSIVQSECSVSCGGGYINVKAICLRDQNTQVNSSFCSAKTKPVTEPKICNAFSCPAYWMPGEWSTCSKACAGGQQSRKIQCVQKKPFQKEEAVLHSLCPVSTPTQVQACNSHACPPQWSLGPWSQCSKTCGRGVRKRELLCKGSAAETLPESQCTSLPRPELQEGCVLGRCPKNSRLQWVASSWSECSATCGLGVRKREMKCSEKGFQGKLITFPERRCRNIKKPNLDLEETCNRRACPAHPVYNMVAGWYSLPWQQCTVTCGGGVQTRSVHCVQQGRPSSSCLLHQKPPVLRACNTNFCPAPEKREDPSCVDFFNWCHLVPQHGVCNHKFYGKQCCKSCTRKI",platelet oxidation/fragmentation,[1]; concentration not given,induced
same,time of optimum effect of activation by thrombin,"[1]; thrombin 0.5μ/mL, then neutralized with hirudin, n=4",one
same,platelet 12(S)-HETE,[2],induced
